Positions count from the first letter of the chain named.
Experiments:
[1] = molecular target: T1, mouse GPR120 (Mus musculus, UniProt Q7TMA4); assay: PLAP reporter transcription activity in mGPR120-SE302 cells (CRE-PLAP reporter); assay type: cell-based; conditions: HEK293-derived SE302 cells expressing mouse GPR120; forskolin 1.0 μM plus sample, 24 hours; chemiluminescence of supernatant; compared to control cells (GFP-SE302)
T1 construct: expressed in transfected cells; host or cells: SE302 cells (HEK293 clone carrying a CRE-PLAP reporter), transduced with retrovirus from pBabeCL(mGPR120)IH and selected with hygromycin
T1 sequence (Q7TMA4 1-361): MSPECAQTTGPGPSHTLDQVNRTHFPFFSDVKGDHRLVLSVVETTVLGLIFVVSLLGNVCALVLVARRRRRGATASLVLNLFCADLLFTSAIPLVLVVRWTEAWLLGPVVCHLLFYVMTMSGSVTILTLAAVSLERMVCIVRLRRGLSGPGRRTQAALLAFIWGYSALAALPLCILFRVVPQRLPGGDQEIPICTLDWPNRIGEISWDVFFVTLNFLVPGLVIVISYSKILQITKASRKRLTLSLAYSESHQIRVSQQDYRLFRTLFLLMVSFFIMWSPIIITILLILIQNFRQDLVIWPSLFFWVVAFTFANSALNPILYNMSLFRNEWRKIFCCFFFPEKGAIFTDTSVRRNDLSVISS
Experimental: (§1) Using a retrovirus vector plasmid pBabeCLcre4vPdNN capable of inducing a reporter PLAP gene by a cyclic AMP responsive element sequence, a retrovirus vector was prepared according to the method described in Example 4. The retrovirus vector prepared was introduced into HEK293 cells and cells were cloned by a limiting dilution method.
(§2) The SE302 cells constructed in Example 5 were seeded onto a collagen coated 6 well plate (Asahi Technoglass, Co.) at 1.2×10^5 cells per well. Cells were cultured with 2 mL/well of DMEM medium (Sigma, Co.) (containing 10% FBS, penicillin 100 units/mL and streptomycin 100 μg/mL). On the following day, solutions of the virus vector containing GPR120 or mGPR120 obtained in Example 4, and polybrene (also called hexadimethrine bromide, Sigma, Co.) at a final concentration of 8 μg/mL were added to SE302 cells. Cells were cultured with the medium containing 500 μg/mL of hygromycin (Invitrogen, Co.) and cells grown under this condition were used for experiments as SE302 cells introduced with GPR120 gene, and SE302 cells introduced with mGPR120 gene (referred to as “GPR120-SE302 cells” and “mGPR120-SE302 cells”, respectively hereinafter).
The aforementioned GPR120-SE302 cells or mGPR120-SE302 cells constructed in Example 6 were suspended in the culture medium for measurement of transcription activity (DMEM containing FBS which was heat-treated at 65° C. for 30 min at a final concentration of 10%) and seeded onto a 96 well plate (Becton Dickinson, Co.) at 1×10^4 cells/well. In addition, as control cells, SE302 cells expressing green fluorescent protein (GFP, Invitrogen, Co.) (referred to as “GFP-SE302 cells” hereinafter) were used. Specifically, GFP-302 cells were prepared by obtaining a virus for expressing GFP using the method shown in Example 3 and 4, and transfecting SE302 cells with the virus using the method shown in Example 6. Cells were cultured for 24 hours after seeding, and forskolin prepared at a final concentration of 1.0 μM and a sample were added. Cells were cultured for another 24 hours and 5 μL of the cell supernatant was recovered and transferred to a polypropylene 384-well white plate (Nalge Nunc International, Co.). Then, 20 μL of the assay buffer (280 mmol/L Na2CO3—NaHCO3, 8 mmol/L MgSO4, pH 10) and 25 μL of Lumiphos530 (Lumigen, Co.) were added. Following a 2-hour reaction at room temperature, chemiluminescence in each well was measured using a Fusion plate reader (Perkin Elmer, Co.) and was defined as the transcription activity. Based on these measured values, stimulation/inhibition of transcription activity was calculated using the equation (I) shown below and described as [% of control]. Activities of the group with a sample added were calculated using the value of control placed on each plate. [% of control]=(X−C)/(F−C)×100 (I) Herein, in the above equation: • X: PLAP transcription activity in the group added with a sample, • F: Mean value of transcription activities in 2 wells of a positive control (no sample added, stimulated with forskolin), • C: Mean value of transcription activities in 2 wells of a negative control (no sample added, not stimulated with forskolin).

[2] = molecular target: T2, human GPR120 (Homo sapiens, UniProt Q5NUL3); assay: PLAP reporter transcription activity in GPR120-SE302 cells (CRE-PLAP reporter); assay type: cell-based; conditions: HEK293-derived SE302 cells expressing human GPR120; forskolin 1.0 μM plus sample, 24 hours; chemiluminescence of supernatant; compared to control cells (GFP-SE302)
T2 construct: open reading frame which starts with ATG of the nucleotide number 1-3 and ends with TAA of the nucleotide number 1084-1086; expressed in transfected cells; host or cells: SE302 cells (HEK293 clone carrying a CRE-PLAP reporter), transduced with retrovirus from pBabeCL(GPR120)IH and selected with hygromycin
T2 sequence (Q5NUL3 1-361): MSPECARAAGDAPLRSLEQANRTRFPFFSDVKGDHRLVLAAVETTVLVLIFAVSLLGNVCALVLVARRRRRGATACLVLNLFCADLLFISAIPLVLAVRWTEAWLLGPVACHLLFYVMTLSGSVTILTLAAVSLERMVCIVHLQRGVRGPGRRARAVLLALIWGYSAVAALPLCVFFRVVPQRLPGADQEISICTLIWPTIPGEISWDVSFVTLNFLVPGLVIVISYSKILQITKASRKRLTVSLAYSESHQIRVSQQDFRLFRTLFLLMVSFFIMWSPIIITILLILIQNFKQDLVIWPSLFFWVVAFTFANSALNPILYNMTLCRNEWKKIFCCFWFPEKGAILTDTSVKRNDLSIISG
Experimental: as §1, §2
The aforementioned GPR120-SE302 cells or mGPR120-SE302 cells constructed in Example 6 were suspended in the culture medium for measurement of transcription activity (DMEM containing FBS which was heat-treated at 65° C. for 30 min at a final concentration of 10%) and seeded onto a 96 well plate (Becton Dickinson, Co.) at 1×10^4 cells/well. In addition, as control cells, SE302 cells expressing green fluorescent protein (GFP, Invitrogen, Co.) (referred to as “GFP-SE302 cells” hereinafter) were used. Specifically, GFP-302 cells were prepared by obtaining a virus for expressing GFP using the method shown in Example 3 and 4, and transfecting SE302 cells with the virus using the method shown in Example 6. Cells were cultured for 24 hours after seeding, and forskolin prepared at a final concentration of 1.0 μM and a sample were added. Cells were cultured for another 24 hours and 5 μL of the cell supernatant was recovered and transferred to a polypropylene 384-well white plate (Nalge Nunc International, Co.). Then, 20 μL of the assay buffer (280 mmol/L Na2CO3—NaHCO3, 8 mmol/L MgSO4, pH 10) and 25 μL of Lumiphos530 (Lumigen, Co.) were added. Following a 2-hour reaction at room temperature, chemiluminescence in each well was measured using a Fusion plate reader (Perkin Elmer, Co.) and was defined as the transcription activity. Based on these measured values, stimulation/inhibition of transcription activity was calculated using the equation (I) shown below and described as [% of control]. Activities of the group with a sample added were calculated using the value of control placed on each plate. […]

## porcine pancreatic sPLA2: commercially-available (Sigma) porcine pancreatic sPLA2, reported to be mainly Group IB sPLA2 (Swiss Prot P00592)
[1]
  PLAP activity in mGPR120-SE302 cells: concentration dependent elevation of PLAP activity
[2]
  PLAP activity in GPR120-SE302 cells: concentration dependent elevation of PLAP activity

B1: hGX-sPLA2-His: purified human C-terminal His-tagged GX-sPLA2 from baculovirus-infected Sf9 cells (protein, UniProt O15496 43-165, looked up)
Group 10 secretory …: GILELAGTVGCVGPRTPIAYMKYGCFCGLGGHGQPRDAIDWCCHGHDCCYTRAEEAGCSPKTERYSWQCVNQSVLCGPAENKCQELLCKCDQEIANCLAQTEYNLKYLFYPQFLCEPDSPKCD
modifications: C-terminal His6 tag
notes: purified human C-terminal His-tagged GX-sPLA2 from baculovirus-infected Sf9 cells
[1]
  PLAP activity in mGPR120-SE302 cells: concentration dependent elevation of PLAP activity

B2: GX-sPLA2: rat Group X secretory phospholipase A2 (SEQ ID NO 23) purified from rat intestinal tract and testis extracts (protein, listed as Rattus norvegicus)
chain: GLLELAGTLDCVGPRSPMAYMNYGCYCGLGGHGEPRDAIDWCCYYHDCCYSQAQDAGCSPKLYRYPWKCMDHRILCGPAENKCQELLCRCDETLAYCLADTEYHLKYLFFPSVLCEKDSPKCN
[2]
  PLAP activity in GPR120-SE302 cells: elevate PLAP activity specifically in GPR120-SE302 cells

B3: mGX-sPLA2-His: purified mouse C-terminal His-tagged GX-sPLA2 from baculovirus-infected Sf9 cells (protein, UniProt Q9QXX3 29-151, looked up)
Group 10 secretory …: B2 chain with Y45H, Q52R, Y63D, R73H, T93E, D100G, V113I
modifications: C-terminal His6 tag
notes: purified mouse C-terminal His-tagged GX-sPLA2 from baculovirus-infected Sf9 cells
[1]
  PLAP activity in mGPR120-SE302 cells: concentration dependent elevation of PLAP activity

B4: recombinant hGX-sPLA2: C-terminal FLAG-tagged human GX-sPLA2 (SEQ ID NO 43) produced in silkworm pupae, purified (protein, listed as Homo sapiens)
chain: MGPLPVCLPIMLLLLLPSLLLLLLLPGPGSGEASRILRVHRRGILELAGTVGCVGPRTPIAYMKYGCFCGLGGHGQPRDAIDWCCHGHDCCYTRAEEAGCSPKTERYSWQCVNQSVLCGPAENKCQELLCKCDQEIANCLAQTEYNLKYLFYPQFLCEPDSPKCDDYKDDDDK
modifications: C-terminal FLAG tag
[1]
  PLAP activity in mGPR120-SE302 cells: concentration dependent elevation of PLAP activity
[2]
  PLAP activity in GPR120-SE302 cells: concentration dependent elevation of PLAP activity

B5: recombinant mGX-sPLA2: C-terminal FLAG-tagged mouse GX-sPLA2 (SEQ ID NO 45) from baculovirus-infected Sf-9 cells, purified (protein, listed as Mus musculus)
chain: MLLLLLLLLLGPGPGFSEATRRSHVYKRGLLELAGTLDCVGPRSPMAYMNYGCYCGLGGHGEPRDAIDWCCYHHDCCYSRAQDAGCSPKLDRYPWKCMDHHILCGPAENKCQELLCRCDEELAYCLAGTEYHLKYLFFPSILCEKDSPKCNDYKDDDDK
modifications: C-terminal FLAG tag
[1]
  PLAP activity in mGPR120-SE302 cells: concentration dependent elevation of PLAP activity
[2]
  PLAP activity in GPR120-SE302 cells: concentration dependent elevation of PLAP activity

Source: patent publication US8399204B2, “Method for screening of substance which alter GPR120-mediated cell-stimulating activities” (Eisai R&D Management Co., Ltd., priority 2005, dated 2013)
